The record followed here is patent US20080220446A1, “Method for Detecting and/or Removing Protein and/or Peptide Comprising a Cross-Beta Structure From an Aqueous Solution Comprising a Protein” (priority 2005, published 2008).

One assay deals with tPA (Homo sapiens, UniProt P00750). The assay is described as follows: Biacore surface plasmon resonance, binding to immobilized tPA. To be noted: Hb-AGE 32, albumin-AGE 3.9, amyloid γ-globulins 62.5 μg ml^−1. The procedure:
Binding of cross-β structure containing peptides/proteins was studied using surface plasmon resonance technology with a Biacore 2000 apparatus (Biacore AB, Uppsala, Sweden). A standardized amine coupling procedure was used to couple proteins with F domains to a CM5 chip (Biacore AB, Uppsala, Sweden). First, the dextran surface of the chips was activated by a 35 μl injection with a 1:1 mixture of 0.1 M N-hydroxysuccinimide (NHS) and 0.4 M N-ethyl-N′-(dimethylaminopropyl)carbodiimide (EDC) at a flow rate of 5 μl min.^−1. Then, the proteins were covalently coupled to the activated dextran surface. Remaining activated groups in each of the four flow channels were blocked by injection of 35 μl of 1 M ethanolamine hydrochloride pH 8.5. EDC, NHS and ethanolamine hydrochloride were obtained from Biacore. On one chip, on channels 1 to 4, buffer (reference channel), the soluble extracellular part of receptor for advanced glycation endproducts (sRAGE), tPA and K2P-tPA were immobilized. […] Binding of albumin-AGE was determined with a solution of 3.9 μg ml^−1 albumin-AGE in running buffer. albumin-AGE was filtered on a Millex-GV 0.22 μm filter unit (Millipore). […] Binding of Hb-AGE was also tested after centrifugation for 10 min. at 16,000*g alternative to filtration. tPA activation before and after filtration was assessed with a Plg-activation assay. […]
On the technique in general: SPR reads the build-up and loss of mass on a sensor chip optically.

Another assay concerns the target T1, fibronectin F4,5 (Homo sapiens, UniProt P02751).
T1 construct: human fibronectin finger 4,5 (Fn F4,5) fragment; made in house; host or cells: HEK293E
Nature of the assay: Affinity determination ELISA, fibronectin F4,5 on coated (mis)folded proteins. Particulars: coated protein as labelled. It is filed as binding. An excerpt:
(§1) Synthetic genes of human BiP, human fibronectin finger 4,5 (Fn F4,5) fragment, and human tissue-type plasminogen activator finger EGF (tPA F-EGF) fragment were ordered from Geneart (Regensburg, Germany). These DNA constructs were digested using BamHI and NotI, and ligated into vector pABC674 (ABC-expression facility, Utrecht University, The Netherlands), which contains a carboxy-terminal FLAG-tag—His-tag. HEK293E cells were transiently transfected with these constructs using the polyethylene-imine method, and grown for 5-6 days.
(§2) Denatured proteins and their native controls BSA (Sigma, A7906), glycated BSA, Hb (Sigma, H7605), glycated Hb, ovalbumin (Sigma, A6741), heat-denatured misfolded ovalbumin, human γ-globulins (Sigma, G4386), heat-denatured misfolded γ-globulins, alkyl-γ-globulins, lysozyme (ICN Biochemicals, 100831) and alkyl-lysozyme were coated on ELISA plates (Greiner Microlon high-binding, 655092) in 50 mM NaHCO3-buffer pH 9.6. The plates were blocked using Blocking reagent (Roche 1112589). […] Bound protein is detected by the FLAG-tag using 1:3000 anti-FLAG-HRP (Sigma A-8592) in PBS-T, or by 1:1000 Ni-NTA-HRP (Qiagen 34530) in PBS-T. The HRP reaction Is performed using the TMB substrate (Biosource 4501103 or Tebu Bio 101TMB100-500), stopped using 10% H2SO4 and absorbance was measured at 450 nm.
In general terms: ELISA stands for enzyme-linked immunosorbent assay.

The next assay concerns the target T2, tPA F-EGF (Homo sapiens, UniProt P00750).
T2 construct: made in house; host or cells: HEK293E
T2 sequence (P00750 36-120 limits assumed): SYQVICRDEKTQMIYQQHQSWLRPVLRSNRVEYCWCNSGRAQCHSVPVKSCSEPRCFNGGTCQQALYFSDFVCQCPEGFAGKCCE
The assay is described as follows: Affinity determination ELISA, tPA F-EGF on coated (mis)folded proteins. It is filed as binding. To be noted: coated protein as labelled, relative to native control.
Description: as §1, §2

Sequence of tPA (P00750 36-562): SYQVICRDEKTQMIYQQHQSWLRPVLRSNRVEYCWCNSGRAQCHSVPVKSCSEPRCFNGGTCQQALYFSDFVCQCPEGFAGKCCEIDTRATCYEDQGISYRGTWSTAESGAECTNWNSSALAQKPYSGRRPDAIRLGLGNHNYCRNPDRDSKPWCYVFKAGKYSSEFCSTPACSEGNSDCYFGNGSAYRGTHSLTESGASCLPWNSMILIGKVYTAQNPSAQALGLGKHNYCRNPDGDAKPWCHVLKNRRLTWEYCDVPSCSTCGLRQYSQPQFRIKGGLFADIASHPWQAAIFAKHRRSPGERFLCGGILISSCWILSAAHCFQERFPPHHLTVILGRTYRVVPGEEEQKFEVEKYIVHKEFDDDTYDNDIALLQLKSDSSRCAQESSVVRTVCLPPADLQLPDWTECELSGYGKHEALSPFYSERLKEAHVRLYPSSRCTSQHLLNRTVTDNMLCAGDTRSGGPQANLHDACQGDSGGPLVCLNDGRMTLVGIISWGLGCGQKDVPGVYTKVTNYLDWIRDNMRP
T1 sequence (P02751 182-276 limits assumed): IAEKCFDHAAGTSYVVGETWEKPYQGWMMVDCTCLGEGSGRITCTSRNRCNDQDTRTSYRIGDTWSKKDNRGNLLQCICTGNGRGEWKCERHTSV

In the case of “albumin-AGE: advanced glycation end-product modified bovine serum albumin”, in the assay with tPA, the “binding to immobilized tPA” value is “bind”. Besides, the “affinity for fibronectin F4,5” value with fibronectin F4,5 is given as “High affinities”. For the same substance, in the assay with tPA F-EGF, the “binding of tPA F-EGF” value is “High binding affinities”.
